Laboratory results from US20240254227A1 (Alector, published 2024).

T1: human CD300LB on primary human macrophages (human, UniProt A8K4G0 18-201)
T1 sequence: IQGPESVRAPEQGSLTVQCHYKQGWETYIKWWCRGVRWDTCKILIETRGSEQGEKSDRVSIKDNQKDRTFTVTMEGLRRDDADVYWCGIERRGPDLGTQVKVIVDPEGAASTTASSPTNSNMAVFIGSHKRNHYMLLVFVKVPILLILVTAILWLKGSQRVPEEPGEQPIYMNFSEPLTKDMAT

T2: human CD300LB on primary human monocytes (human, UniProt A8K4G0 18-201)
T2 construct: Endogenous protein on primary cells; that the target is CD300LB is inferred from the antibodies being anti-CD300LB antibodies; also called Monocyte donor 1281; Monocyte donor 1282
T2 sequence: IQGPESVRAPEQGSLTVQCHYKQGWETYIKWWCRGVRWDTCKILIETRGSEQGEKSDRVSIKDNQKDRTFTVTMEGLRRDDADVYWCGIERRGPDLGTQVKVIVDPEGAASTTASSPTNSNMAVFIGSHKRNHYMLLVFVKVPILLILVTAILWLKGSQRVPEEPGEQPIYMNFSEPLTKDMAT

T3: huCD300F constitutively expressed on 293 Freestyle (Freestyle HEK) cells (human, UniProt Q8TDQ1 20-290)
T3 construct: also called huCD300LF; Human CD300F
T3 sequence: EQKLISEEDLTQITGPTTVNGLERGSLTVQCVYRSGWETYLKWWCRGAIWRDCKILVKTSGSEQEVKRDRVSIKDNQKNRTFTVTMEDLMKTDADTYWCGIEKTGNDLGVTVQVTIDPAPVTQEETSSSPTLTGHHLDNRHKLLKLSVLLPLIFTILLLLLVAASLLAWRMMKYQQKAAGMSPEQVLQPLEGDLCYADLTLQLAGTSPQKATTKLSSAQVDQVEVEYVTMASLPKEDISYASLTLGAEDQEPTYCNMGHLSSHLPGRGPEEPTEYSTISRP

T4: recombinant human CD300LB overexpressed on Jurkat cells (human, UniProt A8K4G0 18-201)
T4 construct: also called huCD300LB; huCD300LB-expressing Jurkat cells
T4 sequence: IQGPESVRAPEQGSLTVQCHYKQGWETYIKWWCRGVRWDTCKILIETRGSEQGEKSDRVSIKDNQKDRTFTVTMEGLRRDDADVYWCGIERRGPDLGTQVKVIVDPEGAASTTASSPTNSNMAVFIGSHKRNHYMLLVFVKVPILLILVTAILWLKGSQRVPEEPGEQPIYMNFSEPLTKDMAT

T5: human CD300LB transiently expressed on HEK293 cells (human, UniProt A8K4G0 18-201)
T5 construct: CD300LB expression constructs'; also called huCD300LB HEK293
T5 sequence: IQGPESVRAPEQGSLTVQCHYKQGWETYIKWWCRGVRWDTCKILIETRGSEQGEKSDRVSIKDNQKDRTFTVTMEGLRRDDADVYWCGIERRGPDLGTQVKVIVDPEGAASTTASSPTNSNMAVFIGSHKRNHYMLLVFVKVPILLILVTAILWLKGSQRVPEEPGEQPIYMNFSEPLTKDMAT

T6: murine CD300LB stably expressed on Jurkat cells (mouse, UniProt Q3U497 18-209)
T6 construct: also called muCD300LB; mouse CD300LB
T6 sequence: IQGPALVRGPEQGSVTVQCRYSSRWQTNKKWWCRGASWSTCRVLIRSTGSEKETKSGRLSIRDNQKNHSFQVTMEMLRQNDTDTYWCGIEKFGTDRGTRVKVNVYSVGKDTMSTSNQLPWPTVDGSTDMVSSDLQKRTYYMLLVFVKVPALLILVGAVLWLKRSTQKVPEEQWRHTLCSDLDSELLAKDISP


Experiments:
[1] = target: T1, human CD300LB on primary human …; test: flow cytometry, primary human macrophages donor 1275, 10 ug/mL antibody, isotype control subtracted
Experimental: (§1) Human monocytes from various donors were isolated from whole blood using RosetteSep Human Monocyte Enrichment Cocktail (Stemcell technologies) and Ficoll centrifugation per manufacturer protocols. After lysing red blood cells with ACK lysing buffer, monocytes were resuspended in complete media (RPMI, 10% FBS, Pen/Strep, L-glutamine, HEPES, non-essential amino acid, Sodium pyruvate). To obtain macrophages from these isolated monocytes, 100 ng/ml human M-CSF and 8% v/v human serum were added to the cells for 5-7 days. Cells were counted on the day of the experiment and plated at 100,000 cells per well in a round-bottom 96 well plate. Cells were incubated with TruStain Fc block and 10 μg/mL antibody for 1 hour on ice before washing with 250 μL ice cold PBS twice. Cells were then incubated with the appropriate APC-conjugated secondary antibodies for 20 minutes in the dark on ice. Finally, cells were washed twice with ice cold FACS buffer and then resuspended in 100 μL FACS buffer containing 1% propidium iodide. Samples were immediately analyzed using a BD FACSCanto flow cytometer. The gMFI was calculated using FlowJo software minus the gMFI of the appropriate isotype control.

[2] = target: T2, human CD300LB on primary human monocytes; test: flow cytometry, primary human monocytes donor 1281, 10 ug/mL antibody, isotype control subtracted
Experimental: as §1

[3] = target: T2, human CD300LB on primary human monocytes; test: flow cytometry, primary human monocytes donor 1283, 10 ug/mL antibody, isotype control subtracted
Experimental: as §1

[4] = target: T1, human CD300LB on primary human …; test: flow cytometry, primary human macrophages donor 1278, 10 ug/mL antibody, isotype control subtracted
Experimental: as §1

[5] = target: T3, huCD300F constitutively expressed on …; test: flow cytometry, stable Freestyle HEK cells
Experimental: (§2) Other members of the human CD300 family share sequence homology with human CD300LB. Thus, counter screens against binding of the anti-CD300LB antibodies to huCD300A, huCD300C, huCD300LD, huCD300E, huCD300LF, and huCD300G by stable overexpression in Freestyle HEK cells (generation of which is described above) were performed as follows. Cells were counted and labeled with 200 nM CFSE, 500 nM VioBlue, or a combination of the two to discriminate between CD300LB, Parental cells, and the other CD300 family members. Cells were washed thoroughly with PBS containing 2% fetal bovine serum then resuspended at a total of 240,000 cells per well. Hybridoma supernatants (100 L) or purified antibodies at various concentrations were added and incubated for one hour before the cells were washed twice again and stained with an APC-labeled anti-human or anti-mouse secondary antibody. Cells were then analyzed using a BD FACSCanto II. Anti-CD300LB antibodies were analyzed for specific binding to human CD300LB by FlowJo software by gating on live cells, then the APC geometric mean fluorescence intensity (gMFI) calculated for each labeled population. The results are shown in […]
(§3) Freestyle HEK cells were transfected with huCD300A, huCD300C, huCD300D, huCD300E, and huCD300G separately. Then, five stable cell lines from these transfections were pooled; the combined cells are herein known as CD300A/C/D/E/G. Freestyle HEK cells were also transfected with huCD300LB and huCD300F. All transfected cells were then tested for binding of anti-CD300LB antibodies of the present disclosure.

[6] = target: T7, huCD300LB-DAP12 fusion constitutively expressed on 293 Freestyle (Freestyle HEK) cells (human); test: flow cytometry, stable Freestyle HEK cells
T7 construct: also called Human CD300LB-DAP12 chimera
Experimental: as §2, §3
Target sequence in this assay (chain, as listed by the source limits assumed): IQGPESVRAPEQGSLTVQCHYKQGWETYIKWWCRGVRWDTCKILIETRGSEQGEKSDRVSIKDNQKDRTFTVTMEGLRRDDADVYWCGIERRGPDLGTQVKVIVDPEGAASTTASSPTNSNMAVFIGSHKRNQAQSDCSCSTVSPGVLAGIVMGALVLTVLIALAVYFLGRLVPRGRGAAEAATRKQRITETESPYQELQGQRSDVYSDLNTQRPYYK

[7] = target: T2, human CD300LB on primary human monocytes; test: flow cytometry, primary human monocytes donor 1284, 10 ug/mL antibody, isotype control subtracted
Experimental: as §1

[8] = target: T1, human CD300LB on primary human …; test: flow cytometry, primary human macrophages donor 1277, 10 ug/mL antibody, isotype control subtracted
Experimental: as §1

[9] = target: T2, human CD300LB on primary human monocytes; test: flow cytometry, primary human monocytes donor 1282, 10 ug/mL antibody, isotype control subtracted
Experimental: as §1

[10] = target: T4, recombinant human CD300LB overexpressed …; test: flow cytometry on Jurkat cells overexpressing huCD300LB, apparent KD (Drake & Klakamp fit)
Experimental: Purified anti-CD300LB antibodies of the present disclosure were evaluated for their binding affinity to either Jurkat cells overexpressing recombinant huCD300LB or BaF/3 cells overexpressing recombinant muCD300LB. Binding of anti-CD300LB antibodies to the cells was determined as follows. Cells were harvested, washed, and labeled with propidium iodide for viability discrimination. After washing the cells with PBS, 1×10⁵ cells were aliquoted per well in 96-well U-bottom plates and incubated with 100 μL of purified anti-CD300LB antibody at various concentrations in FACS buffer (PBS+2% FBS). After this primary incubation, the supernatant was removed via centrifugation, the cells washed twice with 150 μL of ice-cold FACS buffer, and then incubated with the appropriate secondary antibody on ice for 30 minutes. Following the secondary antibody incubation, the cells were again washed twice with ice-cold FACS buffer and resuspended in a final volume of 200 L FACS buffer. Flow cytometry analysis was then performed using the FACSCanto system (BD Biosciences).
To determine affinity, antibodies at increasing concentrations were used to stain Jurkat cells overexpressing huCD300LB and geometric MFI values measured by the flow cytometer were analyzed on Prism (Graphpad) software.

[11] = target: T5, human CD300LB transiently expressed on …; test: flow cytometry, transfected HEK293, 10 ug/mL, isotype subtracted
Experimental: In addition, supernatants or purified antibodies were tested for species crossreactivity by comparing the binding of human, mouse, and cynomolgous monkey CD300LB expressing cell lines. HEK293 were transfected with […] of human, mouse, and cyno CD300LB expression constructs using the Mirus system in 10 cm tissue culture dishes. Cells were then incubated for 24 hours in complete medium. Cells were harvested by incubation in TrypLE Express, then washed with PBS and labeled with 200 nM CFSE, 500 nM VioBlue, or a combination of the two to discriminate between human, mouse, and cyno CD300LB expressing cells. Cells were washed thoroughly with PBS containing 2% fetal bovine serum then resuspended at a total of 240,000 cells per well. Purified antibodies at 10 μg/mL were added and incubated for one hour before the cells were washed again and stained with an APC-labeled anti-human or anti-mouse secondary. Cells were then analyzed using a BD FACSCanto II. Antibodies were analyzed for specific binding to human, mouse, or cyno CD300LB by FlowJo software by gating on live cells, then the APC gMFI calculated for each labeled population minus the gMFI of the isotype control.

[12] = target: T7, huCD300LB-DAP12 fusion constitutively …; test: flow cytometry, geometric mean (APC-A), FreeStyle HEK cells expressing huCD300LB
Experimental: as §2

[13] = target: T4, recombinant human CD300LB overexpressed …; test: flow cytometry, stable Jurkat cells, supernatant or 10 ug/mL, isotype subtracted
Experimental: (§4) Purified anti-CD300LB antibodies of the present disclosure were also evaluated for species cross-reactivity to mouse and human CD300LB stably expressed in Jurkat cells (generation of which is described above). Cells were counted and labeled with 200 nM CFSE, 500 nM VioBlue, or a combination of the two to discriminate between human CD300LB, Parental cells and mouse CD300LB. Cells were washed thoroughly with PBS containing 2% fetal bovine serum then resuspended at a total of 240,000 cells per well. Hybridoma supernatants (100 L) or purified antibodies at 10 μg/mL were added and incubated for one hour before the cells were washed again and stained with an APC-labeled anti-human or anti-mouse secondary. Cells were then analyzed using a BD FACSCanto II. Antibodies were analyzed for binding to mouse or human CD300LB by FlowJo software by gating on live cells, then the APC gMFI calculated for each labeled population by subtraction of the gMFI of the appropriate isotype control.

[14] = target: T6, murine CD300LB stably expressed on …; test: as above
Experimental: as §4

[15] = target: T6, murine CD300LB stably expressed on …; test: flow cytometry, stable Jurkat cells

Binder | gMFI [1] | gMFI [2] | gMFI [3] | gMFI [4] | binding result [5] | gMFI [5] | gMFI [6] | gMFI [7] | gMFI [8] | gMFI [9] | Kd [10] | gMFI [11] | binding result [12] | gMFI [13] | gMFI [14] | binding result [15]
anti-CD300LB antibody CD-09 (antibody, V domains shown) VH: QVQLVQSGAEVKKPGASVKVSCKASGYTFTTYAVHWVRQAPGQGLEWMGIINPNSGGTNYAQKFQGRVTMTRDTSTSTVYMELSSLRSEDTAVYYCARDIVPMNNFYNYYYGMDVWGQGTTVTVSS VL: DIQMTQSPSSLSASVGDRVTITCRASQSISSYLNWYQQKPGKAPKLLIYATSTLQSGVPSRFSGSGSGTDFTLTISSLQPEDFATYYCQQSYRIPYTFGQGTKVEIK | 19700 gMFI | 1370 gMFI | 2580 gMFI | 13300 gMFI | no binding | 28 gMFI | 37900 gMFI | 1040 gMFI | 15700 gMFI | 3070 gMFI | 109 nM | 445 gMFI |  |  |  | 
anti-CD300LB antibody CD-08 (antibody, V domains shown) VH: EVQLLESGGGLVQPGGSLRLSCAASGFTFSNAWMSWVRQAPGKGLEWVSVISGSGGRTYYADSVKGRFTISRDNSKNTLYLQMNSLRAEDTAVYYCARDGTTVAPKGMDVWGQGTTVTVSS VL: DIQMTQSPSSLSASVGDRVTITCQASQDINNYVNWYQQKPGKAPKLLIYAASNLQSGVPSRFSGSGSGTDFTLTISSLQPEDFATYYCQQSYSPPYTFGQGTKLEIK | 3580 gMFI | 2970 gMFI | 1920 gMFI | 135000 gMFI | no binding | 212 gMFI | 56800 gMFI | 1400 gMFI | 2800 gMFI | 4470 gMFI | 45 nM | 774 gMFI |  |  |  | 
anti-CD300LB antibody CD-04 (antibody, V domains shown) VH: QVQLQQSGAELVRPGASVTLSCRASGYTFTDFEMHWVKQTPLHGLEWIGAIAPETGGTAYNQKFKGKAILTADKSSSTAYVELRSLTSEDSAVYFCTRLGGMDYWGQGTSVTVSS VL: DVVMTQTPLSLPVSLGDQASISCRSSQTLVHNNGNTYLYWYLQKPGQSPKLLIYQVSNRFFGVPDRFSGSGSGTDFTLKISRVEAEDLGLYFCSQSTHVPWTFGGGTKLEIK |  |  |  |  |  |  | 190 gMFI |  |  |  | 32 nM | 207 gMFI | no binding | 193 gMFI | 18 gMFI | no binding (tested: 10 ug/mL)
